Results from patent publication US10500249B2, “Compositions and methods for preventing or treating diseases, conditions, or processes characterized by aberrant fibroblast proliferation and extracellular matrix deposition” (MOERAE MATRIX, INC., priority 2014, dated 2019).

Legend:
Test in all cases: Kinase Profiling Assay
Type in all cases: biochemical
Settings in all cases: 100 μM
[1] = target: FGFR2 (h) (Homo sapiens, UniProt P21802)
Procedure, shortened: (§1)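 Radiometric filter-binding format: cationic substrate takes up labeled phosphate from ATP unless the inhibitor peptide blocks the kinase. Substrate bound to an anionic filter, scintillation-counted, normalized to 100% activity control. Duplicates; part of a 266-kinase selectivity panel for MK2 peptides.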

[2] = target: Ret(V804M) (h) (Homo sapiens, UniProt P07949, V804M)
Procedure, shortened: as §1

[3] = target: MAPK2 (h) (Homo sapiens, UniProt P28482)
MAPK2 (h), sequence (P28482 whole entry): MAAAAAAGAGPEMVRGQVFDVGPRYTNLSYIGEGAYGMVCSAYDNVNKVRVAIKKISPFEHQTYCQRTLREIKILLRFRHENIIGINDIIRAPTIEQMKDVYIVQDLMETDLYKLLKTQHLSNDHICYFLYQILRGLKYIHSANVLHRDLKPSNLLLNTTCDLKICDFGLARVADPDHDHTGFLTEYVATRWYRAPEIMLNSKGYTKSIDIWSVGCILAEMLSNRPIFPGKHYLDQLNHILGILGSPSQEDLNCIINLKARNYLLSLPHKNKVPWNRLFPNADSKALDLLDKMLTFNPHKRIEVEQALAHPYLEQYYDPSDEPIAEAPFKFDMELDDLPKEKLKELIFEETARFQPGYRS
Procedure, shortened: as §1

[4] = target: T1, CaMKIIβ (h) (Homo sapiens, UniProt Q13554)
T1 construct: purchased Millipore
T1 sequence (Q13554 whole entry): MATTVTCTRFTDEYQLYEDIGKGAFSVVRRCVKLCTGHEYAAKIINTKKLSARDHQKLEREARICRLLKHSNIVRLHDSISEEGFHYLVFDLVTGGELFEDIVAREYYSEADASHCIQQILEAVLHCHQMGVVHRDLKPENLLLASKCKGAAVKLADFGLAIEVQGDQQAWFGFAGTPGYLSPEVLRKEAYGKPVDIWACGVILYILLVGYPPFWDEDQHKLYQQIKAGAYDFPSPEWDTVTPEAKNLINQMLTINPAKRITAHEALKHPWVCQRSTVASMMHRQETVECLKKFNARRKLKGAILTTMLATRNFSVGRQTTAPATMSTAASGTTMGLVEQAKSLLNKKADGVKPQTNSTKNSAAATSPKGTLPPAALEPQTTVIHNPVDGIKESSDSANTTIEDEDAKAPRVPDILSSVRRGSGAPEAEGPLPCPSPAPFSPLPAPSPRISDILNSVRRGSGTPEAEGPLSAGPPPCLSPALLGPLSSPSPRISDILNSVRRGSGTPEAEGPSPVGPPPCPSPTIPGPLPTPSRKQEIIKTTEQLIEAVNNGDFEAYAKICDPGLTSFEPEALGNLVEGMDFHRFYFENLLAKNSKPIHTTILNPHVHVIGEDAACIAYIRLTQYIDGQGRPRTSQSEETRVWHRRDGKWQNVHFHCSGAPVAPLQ
Procedure, shortened: as §1

[5] = target: T2, EphB1 (h) (Homo sapiens, UniProt P54762)
T2 sequence (P54762 18-984): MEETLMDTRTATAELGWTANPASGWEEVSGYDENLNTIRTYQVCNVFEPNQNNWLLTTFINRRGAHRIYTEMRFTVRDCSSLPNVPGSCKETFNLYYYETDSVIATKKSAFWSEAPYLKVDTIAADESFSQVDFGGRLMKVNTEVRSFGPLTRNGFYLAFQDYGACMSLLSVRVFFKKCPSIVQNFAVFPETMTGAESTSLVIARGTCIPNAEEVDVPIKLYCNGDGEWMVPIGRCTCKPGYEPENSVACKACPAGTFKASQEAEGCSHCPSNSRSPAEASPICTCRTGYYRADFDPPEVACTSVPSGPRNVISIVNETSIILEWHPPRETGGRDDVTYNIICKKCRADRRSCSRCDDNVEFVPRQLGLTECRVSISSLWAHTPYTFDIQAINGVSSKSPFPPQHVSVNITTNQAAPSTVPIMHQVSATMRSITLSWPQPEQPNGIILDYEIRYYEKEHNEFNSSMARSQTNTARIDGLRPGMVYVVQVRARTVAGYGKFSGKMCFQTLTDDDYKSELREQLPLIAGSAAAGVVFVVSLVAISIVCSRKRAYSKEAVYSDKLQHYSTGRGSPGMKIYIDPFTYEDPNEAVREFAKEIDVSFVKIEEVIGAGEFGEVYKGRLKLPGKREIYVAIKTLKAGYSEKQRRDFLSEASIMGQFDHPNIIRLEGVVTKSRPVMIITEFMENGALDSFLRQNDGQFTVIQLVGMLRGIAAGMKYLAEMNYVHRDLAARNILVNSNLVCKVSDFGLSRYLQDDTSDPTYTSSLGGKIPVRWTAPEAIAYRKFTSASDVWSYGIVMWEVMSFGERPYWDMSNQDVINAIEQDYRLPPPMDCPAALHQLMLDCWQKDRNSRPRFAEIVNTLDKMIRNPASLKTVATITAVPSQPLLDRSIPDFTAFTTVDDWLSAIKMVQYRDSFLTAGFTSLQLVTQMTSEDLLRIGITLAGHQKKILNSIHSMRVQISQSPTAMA
Procedure, shortened: as §1

[6] = target: T3, EGFR(L858R) (h) (Homo sapiens, UniProt P00533, L858R)
T3 construct: purchased Millipore
Procedure, shortened: as §1

[7] = target: T4, CaMKIIδ (h) (Homo sapiens, UniProt Q13557)
T4 construct: purchased Millipore
T4 sequence (Q13557 whole entry): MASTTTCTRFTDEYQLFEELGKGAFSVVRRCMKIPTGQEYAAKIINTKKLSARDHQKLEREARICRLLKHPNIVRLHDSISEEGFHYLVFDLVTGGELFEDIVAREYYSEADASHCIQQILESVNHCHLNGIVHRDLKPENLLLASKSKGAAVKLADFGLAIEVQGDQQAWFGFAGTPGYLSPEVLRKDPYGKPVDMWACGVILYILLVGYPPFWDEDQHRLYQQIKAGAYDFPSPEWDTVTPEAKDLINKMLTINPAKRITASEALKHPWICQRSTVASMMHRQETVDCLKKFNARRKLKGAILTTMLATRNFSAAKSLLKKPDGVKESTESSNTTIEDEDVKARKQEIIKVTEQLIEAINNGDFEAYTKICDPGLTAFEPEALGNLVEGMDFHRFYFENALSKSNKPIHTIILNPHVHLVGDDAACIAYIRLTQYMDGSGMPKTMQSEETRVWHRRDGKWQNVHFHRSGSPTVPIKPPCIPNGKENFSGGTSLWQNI
Procedure, shortened: as §1

[8] = target: T5, Itk (h) (Homo sapiens, UniProt Q08881)
T5 construct: purchased Millipore
T5 sequence (Q08881 1-620): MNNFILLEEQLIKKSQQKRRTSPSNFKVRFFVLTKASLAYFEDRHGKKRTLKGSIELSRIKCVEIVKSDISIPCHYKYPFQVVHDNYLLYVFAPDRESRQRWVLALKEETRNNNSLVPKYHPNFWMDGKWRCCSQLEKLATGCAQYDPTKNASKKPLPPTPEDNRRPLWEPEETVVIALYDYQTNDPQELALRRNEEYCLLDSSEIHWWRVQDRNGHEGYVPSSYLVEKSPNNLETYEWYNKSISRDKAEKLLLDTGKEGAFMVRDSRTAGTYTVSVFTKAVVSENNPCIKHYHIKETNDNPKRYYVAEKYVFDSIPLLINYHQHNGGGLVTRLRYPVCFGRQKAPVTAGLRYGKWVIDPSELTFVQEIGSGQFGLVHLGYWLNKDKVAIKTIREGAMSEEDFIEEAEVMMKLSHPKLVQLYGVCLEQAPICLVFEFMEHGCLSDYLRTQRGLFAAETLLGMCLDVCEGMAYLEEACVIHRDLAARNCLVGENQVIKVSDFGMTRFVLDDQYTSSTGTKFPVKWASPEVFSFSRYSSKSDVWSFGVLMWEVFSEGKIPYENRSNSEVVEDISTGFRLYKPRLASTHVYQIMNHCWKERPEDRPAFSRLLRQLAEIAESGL
Procedure, shortened: as §1

[9] = target: T6, MINK (h) (Homo sapiens, UniProt Q8N4C8)
T6 construct: purchased Millipore
T6 sequence (Q8N4C8 whole entry): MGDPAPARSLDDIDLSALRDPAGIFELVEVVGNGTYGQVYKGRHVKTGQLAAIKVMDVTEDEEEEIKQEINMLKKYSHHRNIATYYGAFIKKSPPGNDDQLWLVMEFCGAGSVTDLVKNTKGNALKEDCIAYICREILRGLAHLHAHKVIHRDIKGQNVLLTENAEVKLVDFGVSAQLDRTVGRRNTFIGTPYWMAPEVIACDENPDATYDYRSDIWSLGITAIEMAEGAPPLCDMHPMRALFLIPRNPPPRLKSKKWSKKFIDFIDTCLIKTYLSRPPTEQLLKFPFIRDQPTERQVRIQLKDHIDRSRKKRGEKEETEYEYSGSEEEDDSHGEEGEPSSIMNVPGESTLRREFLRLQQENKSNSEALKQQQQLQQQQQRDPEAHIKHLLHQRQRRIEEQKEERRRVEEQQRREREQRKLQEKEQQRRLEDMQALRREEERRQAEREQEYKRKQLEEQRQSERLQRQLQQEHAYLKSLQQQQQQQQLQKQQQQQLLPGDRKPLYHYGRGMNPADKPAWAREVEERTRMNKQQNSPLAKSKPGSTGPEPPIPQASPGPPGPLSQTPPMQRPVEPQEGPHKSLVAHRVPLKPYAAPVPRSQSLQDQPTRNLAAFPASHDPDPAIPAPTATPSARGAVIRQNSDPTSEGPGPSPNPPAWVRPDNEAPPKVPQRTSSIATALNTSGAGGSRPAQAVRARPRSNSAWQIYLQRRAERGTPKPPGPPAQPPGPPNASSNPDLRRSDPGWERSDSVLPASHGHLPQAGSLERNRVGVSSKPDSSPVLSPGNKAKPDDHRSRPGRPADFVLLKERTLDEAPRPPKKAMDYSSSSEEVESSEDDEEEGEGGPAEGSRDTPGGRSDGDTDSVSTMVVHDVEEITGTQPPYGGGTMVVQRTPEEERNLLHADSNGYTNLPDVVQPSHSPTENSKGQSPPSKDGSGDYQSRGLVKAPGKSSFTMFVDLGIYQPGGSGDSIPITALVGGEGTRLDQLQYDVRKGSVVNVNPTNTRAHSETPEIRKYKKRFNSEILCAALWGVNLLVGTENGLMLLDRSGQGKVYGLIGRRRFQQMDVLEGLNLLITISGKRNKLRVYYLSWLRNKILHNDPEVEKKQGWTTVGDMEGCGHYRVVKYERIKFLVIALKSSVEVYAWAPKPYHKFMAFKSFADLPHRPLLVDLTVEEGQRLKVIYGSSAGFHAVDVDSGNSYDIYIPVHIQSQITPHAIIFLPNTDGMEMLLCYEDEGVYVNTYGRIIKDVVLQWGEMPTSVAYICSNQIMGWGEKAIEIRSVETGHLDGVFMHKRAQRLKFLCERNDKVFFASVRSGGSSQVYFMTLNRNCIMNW
Procedure, shortened: as §1

[10] = target: T7, DRAK1 (h) (Homo sapiens, UniProt Q9UEE5)
T7 construct: purchased Millipore
T7 sequence (Q9UEE5 1-414): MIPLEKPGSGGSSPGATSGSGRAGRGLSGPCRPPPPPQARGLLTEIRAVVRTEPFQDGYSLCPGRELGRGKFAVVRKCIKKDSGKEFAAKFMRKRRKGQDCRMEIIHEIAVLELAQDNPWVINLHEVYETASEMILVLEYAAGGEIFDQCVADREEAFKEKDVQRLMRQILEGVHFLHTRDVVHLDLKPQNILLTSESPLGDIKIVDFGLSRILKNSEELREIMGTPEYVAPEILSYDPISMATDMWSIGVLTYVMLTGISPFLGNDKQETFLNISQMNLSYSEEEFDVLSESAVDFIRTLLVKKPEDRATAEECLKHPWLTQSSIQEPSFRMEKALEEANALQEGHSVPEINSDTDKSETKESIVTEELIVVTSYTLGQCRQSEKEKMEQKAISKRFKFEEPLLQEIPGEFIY
Procedure, shortened: as §1

| Sequence | % activity [1] [%] | % activity [2] [%] | % activity [3] [%] | % activity [4] [%] | % activity [5] [%] | % activity [6] [%] | % activity [7] [%] | % activity [8] [%] | % activity [9] [%] | % activity [10] [%] |
| --- | --- | --- | --- | --- | --- | --- | --- | --- | --- | --- |
| KAFAKLAARLYRKALARQLGVAA [MMI-0400] | 18 | 87 | 93 | 11 | 58 | 52 | 2 | 63 | 52 | 14 |
| YARAAARQARAKALNRQLGVA (Mammalian) [MMI-0200] | 73 | – | – | 53 | 95 | 120 | 2 | 98 | – | 34 |
| HRRIKAWLKKIKALARQLGVAA (Mammalian) [MMI-0500] | 12 | 36 | 60 | 3 | 37 | 26 | 1 | 7 | 5 | 8 |
| FAKLAARLYRKALARQLGVAA [MMI-0300] | 14 | 95 | 98 | 2 | 44 | – | 1 | 77 | 48 | 14 |
